Values joined by “and” are separate entries in the source; they are usually repeats but may differ in a detail not shown here. Identical values can stand only once.
B1: acetylated thioredoxin reductase 1, Nɛ-acetyl-lysine at K141 (acTrxR1^K141) (enzyme, human, UniProt Q16881-4 1-551, looked up)
chain: MSCEDGRALEGTLSELAAETDLPVVFVKQRKIGGHGPTLKAYQEGRLQKLLKMNGPEDLPKSYDYDLIIIGGGSGGLAAAKEAAQYGKKVMVLDFVTPTPLGTRWGLGGTCVNVGCIPKKLMHQAALLGQALQDSRNYGWKVEETVKHDWDRMIEAVQNHIGSLNWGYRVALREKKVVYENAYGQFIGPHRIKATNNKGKEKIYSAERFLIATGERPRYLGIPGDKEYCISSDDLFSLPYCPGKTLVVGASYVALECAGFLAGIGLDVTVMVRSILLRGFDQDMANKIGEHMEEHGIKFIRQFVPIKVEQIEAGTPGRLRVVAQSTNSEEIIEGEYNTVMLAIGRDACTRKIGLETVGVKINEKTGKIPVTDEEQTNVPYIYAIGDILEDKVELTPVAIQAGRLLAQRLYAGSTVKCDYENVPTTVFTPLEYGACGLSEEKAVEKFGEENIEVYHSYFWPLEWTIPSRDNNKCYAKIICNTKDNERVVGFHVLGPNAGEVTQGFAAALKCGLTKKQLDSTIGIHPVCAEVFTTLSVTKRSGASILQAGCUG
modifications: Nɛ-acetyl-lysine at 141; selenocysteine (Sec) at 550
notes: Same construct as m1 but for the acetyl-lysine at 141; source: E. coli BL21 DE3 or E. coli ΔRF1 (C321.ΔA.exp) with acKRS/tRNA^Pyl, purified (Ni-NTA, size-exclusion chromatography)
B2: acetylated thioredoxin reductase 1, Nɛ-acetyl-lysine at K200 (acTrxR1^K200) (enzyme, human, UniProt Q16881-4 1-551, looked up)
chain: B1 chain
modifications: Nɛ-acetyl-lysine at 200; selenocysteine (Sec) at 550
notes: Same construct as m1 but for the acetyl-lysine at 200; source: E. coli BL21 DE3 or E. coli ΔRF1 (C321.ΔA.exp) with acKRS/tRNA^Pyl, purified (Ni-NTA, size-exclusion chromatography)
B3: wild-type thioredoxin reductase 1 (human TrxR1, isoform 4, Sec550) (enzyme, UniProt Q16881-4 1-551, looked up)
chain: B1 chain
modifications: selenocysteine (Sec) at 550
notes: amplified with a forward primer at the ATG (NdeI) and a reverse primer behind the fdhF SecIS in the 3' UTR; In solution a mixture of monomers, dimers, tetramers and covalently linked dimers; also called WT TrxR1; His6-TrxR1; source: E. coli BL21 DE3 or E. coli ΔRF1 (C321.ΔA.exp), purified (Ni-NTA, size-exclusion chromatography)
B4: acetylated thioredoxin reductase 1, Nɛ-acetyl-lysine at K307 (acTrxR1^K307) (enzyme, human, UniProt Q16881-4 1-551, looked up)
chain: B1 chain
modifications: Nɛ-acetyl-lysine at 307; selenocysteine (Sec) at 550
notes: Same construct as m1 but for the acetyl-lysine at 307; source: E. coli BL21 DE3 or E. coli ΔRF1 (C321.ΔA.exp) with acKRS/tRNA^Pyl, purified (Ni-NTA, size-exclusion chromatography)

Tests used:
[1] = biological target: the molecule itself; experiment: SEC; native size exclusion chromatography, Superdex 200 Increase 10/300 GL, 20 mM sodium phosphate, 150 mM sodium chloride, pH 7.5; 0.5 mL fractions read by anti-His Western blot (densitometry) and DTNB activity; self-association: monomers, dimers, tetramers
[2] = biological target: the molecule itself; experiment: cell-based or functional assay

Protein | stoichiometry N [1] | 9,10-phenanthrequinone assay, relative activity (x-fold, WT TrxR1 = 1), 100 nM TrxR1 [2] | DTNB assay, relative activity (x-fold, WT TrxR1 = 1), 50 nM TrxR1 [2] | insulin linked Trx1 assay, relative activity (x-fold, WT TrxR1 = 1), 200 nM TrxR1 [2]
B1 | 2 and 4 | 1.2 x-fold | 1.8 x-fold | 1.8 x-fold
B2 | 2 and 4 | 1.4 x-fold | 2.1 x-fold | 1.9 x-fold
B3 | 2 and 4 |  |  | 
B4 | 2 and 4 | 1.3 x-fold | 2.7 x-fold | 2 x-fold
